Where two headings read alike, the source gives them in different places.
How the values were obtained:
[1] = target: T1, mouse PRLR with an HA tag on HEK293 cells (mouse, UniProt Q08501 20-608); test: FACS on HEK293/mPRLR cells
T1 construct: whole, on cells; also called HEK293/mPRLR; rodent PRLR; not shown: HA tag
T1 sequence (looked up): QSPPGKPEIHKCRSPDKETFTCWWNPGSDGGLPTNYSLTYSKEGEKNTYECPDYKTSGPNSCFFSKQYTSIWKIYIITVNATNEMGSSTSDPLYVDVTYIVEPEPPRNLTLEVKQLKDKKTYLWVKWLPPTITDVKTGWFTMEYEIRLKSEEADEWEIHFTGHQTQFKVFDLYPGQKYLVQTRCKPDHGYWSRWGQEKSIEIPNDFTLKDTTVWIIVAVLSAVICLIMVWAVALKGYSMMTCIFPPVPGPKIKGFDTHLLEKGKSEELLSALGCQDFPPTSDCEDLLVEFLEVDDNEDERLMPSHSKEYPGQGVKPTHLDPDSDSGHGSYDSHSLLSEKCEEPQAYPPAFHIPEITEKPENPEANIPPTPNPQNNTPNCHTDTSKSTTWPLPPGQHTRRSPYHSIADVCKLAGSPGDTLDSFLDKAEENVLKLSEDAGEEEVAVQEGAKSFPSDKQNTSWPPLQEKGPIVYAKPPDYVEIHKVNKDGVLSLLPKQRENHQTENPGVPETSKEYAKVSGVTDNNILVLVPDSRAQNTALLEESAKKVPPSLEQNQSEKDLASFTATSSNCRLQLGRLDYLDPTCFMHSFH

[2] = target: T2, human prolactin receptor (PRLR) on cells (human, UniProt P16471 25-622); test: cell-based or functional assay
T2 sequence: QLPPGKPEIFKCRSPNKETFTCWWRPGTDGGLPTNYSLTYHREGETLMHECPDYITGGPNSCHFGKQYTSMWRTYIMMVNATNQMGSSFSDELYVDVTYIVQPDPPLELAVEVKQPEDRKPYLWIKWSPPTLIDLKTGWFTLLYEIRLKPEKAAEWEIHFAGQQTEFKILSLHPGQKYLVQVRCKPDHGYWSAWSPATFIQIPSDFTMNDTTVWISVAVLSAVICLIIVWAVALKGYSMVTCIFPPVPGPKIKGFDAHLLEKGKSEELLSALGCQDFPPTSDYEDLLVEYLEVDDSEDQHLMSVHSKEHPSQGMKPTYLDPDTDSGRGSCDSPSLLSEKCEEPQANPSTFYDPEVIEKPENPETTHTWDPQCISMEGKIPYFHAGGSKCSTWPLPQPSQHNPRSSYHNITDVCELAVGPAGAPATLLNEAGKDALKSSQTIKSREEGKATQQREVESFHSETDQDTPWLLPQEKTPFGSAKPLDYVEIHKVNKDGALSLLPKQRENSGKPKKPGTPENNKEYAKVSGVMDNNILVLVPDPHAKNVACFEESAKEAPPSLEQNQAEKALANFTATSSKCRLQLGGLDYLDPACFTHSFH

[3] = target: T3, human prolactin receptor (PRLR) (human, UniProt P16471 25-622); test: cell-based or functional assay
T3 sequence: T2 sequence

[4] = target: T3, human prolactin receptor (PRLR); test: cell-based or functional assay; remark: listed apart in the source
[5] = target: T3, human prolactin receptor (PRLR); test: cell-based or functional assay; remark: listed apart in the source
[6] = target: T3, human prolactin receptor (PRLR); test: cell-based or functional assay; remark: listed apart in the source
[7] = target: T3, human prolactin receptor (PRLR); test: cell-based or functional assay; remark: listed apart in the source
[8] = target: T3, human prolactin receptor (PRLR); test: cell-based or functional assay; remark: listed apart in the source
[9] = target: T4, dimeric form of human PRLR (Example 12 ELISA) (human); test: blocking ELISA: 10 nM dimeric human PRLR premixed with ADC (520 pM to 30 nM), plate-coated human PRL
T4 construct: PRLR'
T4 sequence (P16471 whole entry, looked up): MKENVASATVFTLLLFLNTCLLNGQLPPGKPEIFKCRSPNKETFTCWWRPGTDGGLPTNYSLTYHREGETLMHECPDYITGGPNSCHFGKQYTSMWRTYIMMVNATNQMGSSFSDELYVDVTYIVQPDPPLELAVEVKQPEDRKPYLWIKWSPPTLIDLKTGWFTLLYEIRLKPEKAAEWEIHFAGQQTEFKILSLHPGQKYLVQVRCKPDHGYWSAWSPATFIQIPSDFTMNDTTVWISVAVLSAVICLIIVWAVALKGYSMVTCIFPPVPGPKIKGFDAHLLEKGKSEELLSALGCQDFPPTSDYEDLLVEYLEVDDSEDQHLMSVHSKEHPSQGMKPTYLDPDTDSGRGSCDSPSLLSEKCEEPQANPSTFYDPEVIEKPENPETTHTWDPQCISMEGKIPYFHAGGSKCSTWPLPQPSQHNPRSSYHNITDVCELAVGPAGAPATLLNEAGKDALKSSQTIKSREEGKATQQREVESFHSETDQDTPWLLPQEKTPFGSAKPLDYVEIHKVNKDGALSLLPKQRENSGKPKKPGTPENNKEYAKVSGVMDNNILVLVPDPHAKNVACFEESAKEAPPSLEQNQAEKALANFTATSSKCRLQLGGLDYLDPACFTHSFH
Protocol: (§1) Dimeric forms of human or cynomolgus monkey (Macaca fascicularis) PRLR and monomeric human PRL were used in this assay. […] After 1-hour incubation, captured PRLR was detected with HRP-conjugated goat anti-Fcγ antibody and visualized with TMB colorimetric substrate by measuring absorbance at 450 nm. […] Mixtures were then added to plates coated with in 1 μg/mL PRL and captured PRLR was detected as described above. Data were analyzed using a four-parameter logistic equation over an 11-point response curve in GraphPad Prism software and IC₅₀ values were calculated.

[10] = target: T5, dimeric form of cynomolgus monkey (Macaca fascicularis) PRLR (Example 12 ELISA) (cynomolgus monkey (Macaca fascicularis)); test: blocking ELISA: 10 nM dimeric monkey PRLR premixed with ADC (520 pM to 30 nM), plate-coated human PRL
T5 construct: also called monkey PRLR
Protocol: as §1

[11] = target: T3, human prolactin receptor (PRLR); test: cell-based or functional assay; remark: listed apart in the source
[12] = target: T3, human prolactin receptor (PRLR); test: cell-based or functional assay; remark: listed apart in the source
[13] = target: T3, human prolactin receptor (PRLR); test: cell-based or functional assay; remark: listed apart in the source
[14] = target: T3, human prolactin receptor (PRLR); test: cell-based or functional assay; remark: listed apart in the source

B1: H1H6762P (antibody, human IgG1, V domains shown)
VH: QVQLVESGGGVVQPGRSLRLSCAASGFTFSHYGMVWVRQPPGKGLEWVALISFDGTTKYYADSVKGRFTISRDNSKNTLYLQMNSLRAEDTAVYFCVGAIAAAAFDLWGRGTLVTVSS
VL: EIVMTQSPATLSVSPGERATLSCRASQSVSSDLAWYQQKPGQAPRLLIYSASARATGIPARFTGSGSGTDFTLTISSLQSEDFAVYYCQQYNNWPMYTFGQGTKLEIK
binding result [1]: no binding
IC50, block of STAT5 reporter activation by 5 nM PRL in HEK293/hPRLR/STAT5-Luc cells [2]: 0.022 nM

B2: H1H6782P-DM1 (antibody, human IgG1, V domains shown)
VH: EVQLVESGGGLVQPGRSLRLSCAASGFTFDDYAMHWVRQAPGKGLEWVSGIIWNSGHIGYGDSVKGRFTISRDNAKKSLYLQMNSLRAEDTALYYCARDSGRYQSYFDYWGQGTLVTVSS
VL: DIQMTQSPSTLSASVGDRVTITCRASHIISSWLAWYQQKPGKAPKVLIFKASSLESGVPSRFSGSGSGTEFTLTISSLQPDDFATYYCQQYNTYSRTFGQGTKVEIK
modifications: DM1 conjugated through SMCC linker; attachment residues not stated
IC50, cell viability, T47D cells, + 15 nM PRL [3]: 2 nM
IC50, cell viability, T47D cells, without PRL [3]: 1 nM
% Kill, T47D cells [4]: 100%
IC50, cell viability, T47D cells [4]: 3 nM
% Kill, MCF7/PRLR cells [5]: 85%
% Kill, MCF7 cells [5]: 57%
% Kill, T47D cells [5]: 74%
IC50, cell viability, MCF7/PRLR cells [5]: 0.65 nM
IC50, cell viability, MCF7 cells [5]: 120 nM
IC50, cell viability, T47D cells [5]: 4.19 nM
% Kill, MCF7/ATCC cells [6]: 70%
% Kill, MCF7/PRLR cells [6]: 80%
IC50, cell viability, MCF7/ATCC cells [6]: 250 nM
IC50, cell viability, MCF7/PRLR cells [6]: 0.3 nM
% Kill, PC3/PRLR cells [7]: 64%
IC50, cell viability, PC3/PRLR cells [7]: 0.92 nM

B3: H1H6958N2-DM1 (antibody, human IgG1, V domains shown)
VH: QVQLVESGGGVVQPGRSLRLSCGASGFTFRNYGMQWVRQGPGKGLEWVTLISFDGNDKYYADSVKGRFTISRDNSKNTLFLQMNSLRTEDTAVYYCARGGDFDYWGQGTLVTVSS
VL: DIQMTQSPSSLSASVGDRVTITCRASQDIRKDLGWYQQKPGKAPKRLIYAASSLHSGVPSRFSGSGSGTEFTLTISSLQPEDFATYYCLQHNSYPMYTFGQGTKLEIK
modifications: DM1 conjugated through SMCC linker; attachment residues not stated
IC50, cell viability, T47D cells, + 15 nM PRL [3]: 3 nM
IC50, cell viability, T47D cells, without PRL [3]: 1 nM
% Kill, T47D cells [4]: 100%
IC50, cell viability, T47D cells [4]: 2 nM
% Kill, MCF7/PRLR cells [5]: 77%
% Kill, MCF7 cells [5]: 77%
% Kill, T47D cells [5]: 71%
IC50, cell viability, MCF7/PRLR cells [5]: 0.19 nM
IC50, cell viability, MCF7 cells [5]: 100 nM
IC50, cell viability, T47D cells [5]: 1.34 nM
% Kill, MCF7/ATCC cells [8]: 72%
% Kill, MCF7/PRLR cells [8]: 83%
% Kill, PC3/hPRLR cells [8]: 79%
IC50, cell viability, MCF7/ATCC cells [8]: 90 nM
IC50, cell viability, MCF7/PRLR cells [8]: 0.2 nM
IC50, cell viability, PC3/hPRLR cells [8]: 0.5 nM
% Kill, MCF7/ATCC cells [6]: 70%
% Kill, MCF7/PRLR cells [6]: 80%
IC50, cell viability, MCF7/ATCC cells [6]: 70 nM
IC50, cell viability, MCF7/PRLR cells [6]: 0.2 nM
% Kill, 293/PRLR cells [7]: 95%
% Kill, PC3/PRLR cells [7]: 83%
IC50, cell viability, 293/PRLR cells [7]: 0.1 nM
IC50, cell viability, PC3/PRLR cells [7]: 0.43 nM

B4: H1H6958N2-DM1 (antibody, human IgG1, V domains shown)
VH: B3 VH
VL: B3 VL
modifications: maytansinoid DM1 conjugated to the antibody through an SMCC linker; conjugation sites not stated
notes: also called H1H6958N2-SMCC-DM1; PRLR ADC
IC50, block of PRL-induced STAT5-luciferase activity (2 nM PRL) [2]: 0.4 nM
IC50 [9]: 4.4 nM
IC50 [10]: 4.2 nM

B5: H1H6804P (antibody, human IgG1, V domains shown)
VH: QVTLKESGPVLVKPTQTLSLTCTVSGFSLSDAGMGVSWIRQPPGKALEWLAHIFSNDGKSYSTSLKSRLTISKDTSKRQVVLTMTNMDPVDTATYYCARIRTGTYSLYLDYWGQGTLVTVSS
VL: DIQMTQSPSSLSASVGDRVTITCRASQSINSYLNWYQQKPGKAPKLLLYFASSLQSGVPSRFSGSGSGTDFTLTISSLQPEDFASYYCQESYSTPWTFGQGTKVEIK
binding result [1]: no binding
IC50, block of STAT5 reporter activation by 5 nM PRL in HEK293/hPRLR/STAT5-Luc cells [2]: 8 nM

B6: H1H6953N-DM1 (antibody, human IgG1, V domains shown)
VH: EVQLLESGGGLVQPGGTLRLSCAASGFTFSAYAMSWVRQAPGKGLEWVSSINVRAGDTYYADSVKGRFTISRDNSKNTLFLLMNSLRAEDTAAYYCAKARYSSNWGFDFWGQGTLVTVSS
VL: DIVMTQSPDSLTVSLGARTTINCQSSQTILHSSNNHNYLAWYQQKPGLPPKLLIYWSSTRESGVPDRFSGSGSGTDFTLTISSLQAEDVAIYYCQQYSNTPYTFGQGTKLEIN
modifications: DM1 conjugated through SMCC linker; attachment residues not stated
IC50, cell viability, MCF7 cells (PRLR 3X) [11]: 82 nM
IC50, cell viability, T47D cells (PRLR 12X) [11]: 1.3 nM
IC50, cell viability, T47D/ErbB2 cells (PRLR 12X) [11]: 2.4 nM
IC50, cell viability, 293/PRLR cells (PRLR 18X) [12]: 0.43 nM
IC50, cell viability, MCF7/PRLR cells (PRLR 55X) [13]: 0.33 nM
IC50, cell viability, MCF/PRLR + ErbB2 cells (PRLR 55X) [13]: 0.33 nM
IC50, cell viability, NCI-N87/PRLR cells (PRLR 6X) [13]: 2.9 nM
% Kill, T47D cells [4]: 100%
IC50, cell viability, T47D cells [4]: 1.5 nM
% Kill, MCF7/PRLR cells [5]: 76%
% Kill, MCF7 cells [5]: 55%
% Kill, T47D cells [5]: 79%
IC50, cell viability, MCF7/PRLR cells [5]: 0.29 nM
IC50, cell viability, MCF7 cells [5]: 100 nM
IC50, cell viability, T47D cells [5]: 1.64 nM
IC50, cell viability, PC3/PRLR cells (PRLR 13X) [14]: 0.68 nM
% Kill, MCF7/ATCC cells [8]: 70%
% Kill, MCF7/PRLR cells [8]: 80%
% Kill, PC3/hPRLR cells [8]: 83%
IC50, cell viability, MCF7/ATCC cells [8]: 80 nM
IC50, cell viability, MCF7/PRLR cells [8]: 0.1 nM
IC50, cell viability, PC3/hPRLR cells [8]: 0.4 nM
% Kill, MCF7/ATCC cells [6]: 70%
% Kill, MCF7/PRLR cells [6]: 80%
IC50, cell viability, MCF7/ATCC cells [6]: 90 nM
IC50, cell viability, MCF7/PRLR cells [6]: 0.3 nM
% Kill, 293/PRLR cells [7]: 95%
% Kill, PC3/PRLR cells [7]: 67%
IC50, cell viability, 293/PRLR cells [7]: 0.28 nM
IC50, cell viability, PC3/PRLR cells [7]: 0.86 nM

— patent US20180185504A1 (Regeneron, published 2018)
